Molecular target: mouse cKIT ECD
Assay: SPR (Biacore 2000) affinity measurement
Assay type: binding
Conditions: 25° C.
Experimental: Affinity of the antibodies to cKIT species orthologues and also to cKIT was determined using SPR technology using a Biacore® 2000 instrument (GE Healthcare, Pittsburgh, Pa.) and with CM5 sensor chips.
Briefly, HBS-P (0.01 M HEPES, pH 7.4, 0.15 M NaCl, 0.005% Surfactant P20) supplemented with 2% Odyssey® blocking buffer (Li-Cor Biosciences, Lincoln, Nebr.) was used as the running buffer for all the experiments. The immobilization level and analyte interactions were measured by response unit (RU). Pilot experiments were performed to test and confirm the feasibility of the immobilization of the anti-human Fc antibody (Catalog number BR100839, GE Healthcare, Pittsburgh, Pa.) and the capture of the test antibodies.
For kinetic measurements, the experiments were performed in which the antibodies were captured to the sensor chip surface via the immobilized anti-human Fc antibody and the ability of the cKIT proteins to bind in free solution was determined Briefly, 25 μg/ml of anti-human Fc antibody at pH 5 was immobilized on a CM5 sensor chip through amine coupling at flow rate of 5 μl/minute on all two flow cells to reach 10,500 RUs. 0.1-1 μg/ml of test antibodies were then injected at 10 μl/min for 1 minute. Captured levels of the antibodies were generally kept below 200 RUs. Subsequently, 3.125-50 nM of cKIT receptor extracellular domains (ECD) were diluted in a 2-fold series and injected at a flow rate of 40 μl/min for 3 min over both reference and test flow cells. Table of tested ECDs is listed below. Dissociation of the binding was followed for 10 min. After each injection cycle, the chip surface was regenerated with 3 M MgCl2 at 10 μl/min for 30 s.

mouse cKIT ECD, sequence (P05532 25-512 limits assumed): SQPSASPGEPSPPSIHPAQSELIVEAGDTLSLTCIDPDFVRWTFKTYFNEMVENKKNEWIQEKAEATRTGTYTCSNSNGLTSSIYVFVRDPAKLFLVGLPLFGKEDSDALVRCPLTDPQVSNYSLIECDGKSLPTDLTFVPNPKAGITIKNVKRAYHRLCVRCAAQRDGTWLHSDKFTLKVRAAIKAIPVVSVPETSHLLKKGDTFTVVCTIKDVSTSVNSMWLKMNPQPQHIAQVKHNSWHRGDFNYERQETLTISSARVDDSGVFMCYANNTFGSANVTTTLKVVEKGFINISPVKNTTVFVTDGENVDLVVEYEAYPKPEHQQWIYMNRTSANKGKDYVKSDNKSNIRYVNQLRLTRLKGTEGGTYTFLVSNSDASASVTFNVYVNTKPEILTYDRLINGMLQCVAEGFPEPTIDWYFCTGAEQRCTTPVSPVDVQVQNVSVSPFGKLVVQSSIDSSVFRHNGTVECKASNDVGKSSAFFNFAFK

Affinity mouse cKIT (nM): Not reactive
B1: NEG026: anti-cKIT antibody of Table 1; VH SEQ ID NO 46, VL SEQ ID NO 55 (antibody, V domains shown)
VH: EVQLVESGGGLVQPGGSLRLSCAASGFTFSDYYMAWVRQAPGKGLEWVANINQNTGSTYYVDSVQGRFTISRDNAKNSLYLQMNSLRAEDTAVYYCARGDYYGTTYWYFDVWGQGTTVTVSS
VL: EIVMTQSPATLSLSPGERATLSCRASQDISNYLNWYQQKPGQAPRLLIYYTSRLQSGIPARFSGSGSGTDYTLTISSLEPEDFAVYYCQQGKKLWSFGGGTKVEIK

— patent US20150320880A1, “ANTIBODY DRUG CONJUGATES” (NOVARTIS AG, priority 2013, published 2015)
